Assay results: patent US10272117B2, “Methods of using an activator of cereblon for neural cell expansion and the treatment of central nervous system disorders” (Celgene Corporation, priority 2014, dated 2019)

Test system: zebrafish embryos
Test: Brain size, morphology and volume of zebrafish embryos (microscopy, MRI)
Assay type: in vivo
Details: for brain development: 22 hpf
Protocol: An aqueous solution of a 25-mer antisense morpholino oligonucleotide (AMO, Gene Tools, LLC) corresponding to the vicinity of the translation initiation codon in the cDNA sequence of the gene to be knocked down ([…] injection conditions were the same as those used for RNA) was injected into the embryos at the 1-cell stage. The sequence of AMO used for the CRBN gene knockdown is 5′-[…]-3′ (SEQ ID NO: 3). The sequence of AMO used for the Lhx2 gene knockdown is 5′-[…]-3′ (SEQ ID NO:4). The sequence of AMO used for the BRD7 gene knockdown is 5′-[…]-3′ (SEQ ID NO:1). The sequence of AMO used for the Ikaros gene knockdown is 5′-[…]-3′ (SEQ ID NO:2). […]
In order to examine the effect of antagonists of BRD7 on brain growth, BRD7 was knocked down or over-expressed in zebrafish embryos. Knockdown of BRD7 was performed by microinjection of antisense morpholino oligonucleotides (AMO). Overexpression of BRD7 was performed by microinjection of synthesized capped mRNA. AMO or capped mRNA was introduced into one-cell stage embryos by using a nitrogen gas-pressure microinjector IM 300 (Narishige). Conditions for microinjection were as follows: gas pressure was about 15 picosiemens; release period was about 30 to about 50 milliseconds per single injection; concentrations of AMOs and capped mRNA were 400 ng/μl and 250 ng/μl in nuclease-free water, respectively. Capped mRNAs were synthesized in vitro using the mMESSAGE mMachine® in vitro transcription kit (Ambion) from cDNAs cloned into pCS2+ plasmids.
The brains of the embryos were examined for morphology and volume by magnetic resonance imaging (MRI). FIGS. 9A, 9B, and 9C show microscopic pictures of the untreated, the BRD7-knockdown, and the BRD7-overexpressing zebrafish embryos, respectively. FIGS. 9D, 9E, and 9F show fluorescent microscopic pictures of the brain regions of the untreated, the BRD7-knockdown, and the BRD7-overexpressing zebrafish embryos, respectively. As shown in these figures, the BRD7-knockdown zebrafish embryos had bigger heads than the untreated embryos. […] The volume of the whole brain of the BRD7-knockdown fish was much bigger than that of the untreated fish, while for the BRD7-overexpressing fish, the brain volume was smaller.
In order to examine the effect of antagonists of Ikaros on brain growth, Ikaros was knocked down or over-expressed in zebrafish embryos. Knockdown of Ikaros was performed by microinjection of antisense morpholino oligonucleotides (AMO). Overexpression of Ikaros was performed by injection of synthesized capped mRNA. AMO or capped mRNA was introduced into one-cell stage embryos by using a nitrogen gas-pressure microinjector IM 300 (Narishige). Conditions for microinjection were as follows: gas pressure was about 15 picosiemens; release period was about 30 to about 50 milliseconds per single injection; concentrations of AMOs and capped mRNA were 400 ng/μl and 250 ng/μl in nuclease-free water, respectively. Capped mRNAs were synthesized in vitro using the mMESSAGE mMachine® in vitro transcription kit (Ambion) from cDNAs cloned into pCS2+ plasmids.
The brains of the embryos were examined for morphology and volume by magnetic resonance imaging (MRI). FIGS. 15A, 15B, and 15C show microscopic pictures of untreated, Ikaros-knockdown, and Ikaros-overexpressing zebrafish embryos at 55 hpf, respectively. As shown in these figures, the Ikaros-knockdown fish had bigger heads than the untreated embryos. […] The volume of the whole brain of the Ikaros-knockdown fish was much bigger than that of the untreated fish, while for the Ikaros-overexpressing fish, the brain volume was smaller.

Molecule	brain size compared to the normal embryo (FIG. 1)	brain development
5′-TCTGCAACCCAAGATTTCCGTGAGA-3′ (all phosphorodiamidate morpholino (PMO)) [lhx2 gene-knockdown, 25-mer antisense morpholino oligonucleotide (AMO) used for the Lhx2 gene knockdown, reference compound]	brain shrinkage	–
ikzf1-006: Ikaros variant lacking exon 7, overexpressed as fused Ikzf1:EGFP protein in zebrafish embryos (nucleic acid, fused to EGFP; nucleotide sequence of ikzf1-006 Ikaros variant; 808 n = A,T,C or G, Ikaros variant lacking exon 7, overexpressed as fused Ikzf1:EGFP protein in zebrafish embryos) DNA: ATGGAGACTGAGGAGGCACAGGAAATGTCCCAGATAACAGGAAGAGACAGCCCGATGAATGCTAATGAAGGCGGAGAGGATCAAGATGAGGCCATGCCTGTTCCTGAAGACTTGTCAGCAAGCACTGGCCTCCAACACAACAATCGCACAGATAAACCACTGGCCTGTAATATAAAAGTTGAGGCTCGGAGTGACGAGGAAAACGGTCTGTCCTGTGAGATGAATGGAGAGGCAGAGGAATGTGCAGCTGAGGACTTGCGCATACTCGATGGCTCTGGGGCCAAAGTGAACGGCTCCCACGCAGGCCCCGACAGCAAGCCGGCCGCCTACCCCACAGCCGGGGGCATCCGCCTCCCCAACGGGAAGCTGAAGTGCGATATCTGTGGGATAGTTTGCATTGGGCCCAATGTGTTGATGGTTCACAAGCGAAGTCACACTGAAGAAAGAAAGTCAGTTTTGGAACAACAAAAAGGTGAAAGGCCATTCCAGTGCAATCAATGTGGTGCTTCATTCACTCAGAAGGGTAACCTGCTCCGACACATCAAACTTCACTCTGGCGAGAAACCTTTCAAATGTCACCTGTGCAACTATGCTTGCCGCCGCAGAGACGCTCTCACTGGACATCTGCGCACTCATTCGGTTGGAAAGCCCCATAAGTGTGCATATTGCGGACGCAGTTACAAGCAGCGGAGCTCACTGGAGGAACATAAGGAGAGATGTCACAACTACTTGCAGTGCATGGGCCTTCAGAACAGCATTTATACAGGAGAGAATCGTCTGTCAGAGCTATCTTTCGAGAGTGGCTCANGTGAGCTGATGCAGCCCCATGTGATTGATCAGGCCATCAACAGTGCAATTAGCTATCTGGGTGCAGAGTCCTTGCGGCCTCTGGTTCAGACCTCTCCTGGGTCCGCCGACATGGTGGTCAGCCCTCTATACAACCTGCACAAGTCACAAACAGCTGAAGGCAATGGTGTTTCTGCTAAAGACAGCGCCGCAGAGCACCTTCTCCTACTCTCTAAGTCCAAATCCGCCTCTGTTGACAAAGACGGTTCCCCCAGTCCCAGCGGGCAGGATTCCACTGACACTGAGAGCAACAACGAGGAGCGTTCGGCCGGGGTAAGCGGAACAGCAGCCACAGGTGGTCTCATCTACCTGACCAACCACATGGCTCCAGGTATGAGAAATGGAGGCCTGCCAGGGGTAAAGGAAGAACAACACCGGCAGTTTGAGGCTTTGCGAGCAGCAGGAATGGATTTGAGTATAGCGTCATCAGAAGGATTTAAGGTGCTAAGTGGAGATGGAGAAGAATTGAGGGCGTACCGCTGTATCCACTGCAGAGTTTTGTTCCTGGATCATGTCATGTACACCATCCACATGGGCTGTCATGGCTTCCGAGACCCCTTTGAGTGCAACCTATGCGGGTACCGCAGTCAGGACCGTTATGAGTTCTCATCGCACATCACACGTGGAGAGCACCGCATCTGA	–	reduction of brain development
ikzf1-007: Ikaros variant lacking exons 4 and 7, overexpressed as fused Ikzf1:EGFP protein in zebrafish embryos (nucleic acid, fused to EGFP; nucleotide sequence of ikzf1-007 Ikaros variant; 775 n = A,T,C or G, Ikaros variant lacking exons 4 and 7, overexpressed as fused Ikzf1:EGFP protein in zebrafish embryos) DNA: ATGGAGACTGAGGAGGCACAGGAAATGTCCCAGATAACAGGAAGAGACAGCCCGATGAATGCTAATGAAGGCGGAGAGGATCAAGATGAGGCCATGCCTGTTCCTGAAGACTTGTCAGCAAGCACTGGCCTCCAACACAACAATCGCACAGATAAACCACTGGCCTGTAATATAAAAGTTGAGGCTCGGAGTGACGAGGAAAACGGTCTGTCCTGTGAGATGAATGGAGAGGCAGAGGAATGTGCAGCTGAGGACTTGCGCATACTCGATGGCTCTGGGGCCAAAGTGAACGGCTCCCACGCAGGCCCCGACAGCAAGCCGGCCGCCTACCCCACAGCCGGGGGCATCCGCCTCCCCAACGGGAAGCTGAAGTGCGATATCTGTGGGATAGTTTGCATTGGGCCCAATGTGTTGATGGTTCACAAGCGAAGTCACACTGGTGAAAGGCCATTCCAGTGCAATCAATGTGGTGCTTCATTCACTCAGAAGGGTAACCTGCTCCGACACATCAAACTTCACTCTGGCGAGAAACCTTTCAAATGTCACCTGTGCAACTATGCTTGCCGCCGCAGAGACGCTCTCACTGGACATCTGCGCACTCATTCGGTTGGAAAGCCCCATAAGTGTGCATATTGCGGACGCAGTTACAAGCAGCGGAGCTCACTGGAGGAACATAAGGAGAGATGTCACAACTACTTGCAGTGCATGGGCCTTCAGAACAGCATTTATACAGGAGAGAATCGTCTGTCAGAGCTATCTTTCGAGAGTGGCTCANGTGAGCTGATGCAGCCCCATGTGATTGATCAGGCCATCAACAGTGCAATTAGCTATCTGGGTGCAGAGTCCTTGCGGCCTCTGGTTCAGACCTCTCCTGGGTCCGCCGACATGGTGGTCAGCCCTCTATACAACCTGCACAAGTCACAAACAGCTGAAGGCAATGGTGTTTCTGCTAAAGACAGCGCCGCAGAGCACCTTCTCCTACTCTCTAAGTCCAAATCCGCCTCTGTTGACAAAGACGGTTCCCCCAGTCCCAGCGGGCAGGATTCCACTGACACTGAGAGCAACAACGAGGAGCGTTCGGCCGGGGTAAGCGGAACAGCAGCCACAGGTGGTCTCATCTACCTGACCAACCACATGGCTCCAGGTATGAGAAATGGAGGCCTGCCAGGGGTAAAGGAAGAACAACACCGGCAGTTTGAGGCTTTGCGAGCAGCAGGAATGGATTTGAGTATAGCGTCATCAGAAGGATTTAAGGTGCTAAGTGGAGATGGAGAAGAATTGAGGGCGTACCGCTGTATCCACTGCAGAGTTTTGTTCCTGGATCATGTCATGTACACCATCCACATGGGCTGTCATGGCTTCCGAGACCCCTTTGAGTGCAACCTATGCGGGTACCGCAGTCAGGACCGTTATGAGTTCTCATCGCACATCACACGTGGAGAGCACCGCATCTGA	–	reduction of brain development
